Test results from US20240336661A1, “PEPTIDES DERIVED FROM RUMINOCOCCUS TORQUES” (University of Copenhagen, priority 2021, published 2024).

Columns and labels:
[1] = system: mouse 3T3-L1 fibroblasts; assay: Gene expression in 3T3-L1 fibroblasts (q-PCR); format: cell-based; conditions: 3T3-L1 fibroblasts
Experimental: 3T3-L1 cells (a murine fibroblast cell line) were split onto 12-well plates and grown to confluence before inducing differentiation by treatment with 86 nM insulin, 0.1 μM dexamethasone, and 250 μM methyl isobutylxanthine. Two days after induction, cells were switched to an inducing medium in the presence of recombinant RUCILPs, or commercial recombinant irisin (Sigma, #SRP8039-10UG and Phoenix pharmaceuticals, #067-29A), or phosphate buffered saline (PBS) for two days. Subsequently, cells were maintained in 86 nM insulin in the presence of indicated concentrations of recombinant RUCILPs, 21-AABP1, commercial recombinant irisin, or PBS for four days with medium change every other day for 6 days. Cells were then harvested for q-PCR analysis as described in standard protocol for gene expression analysis.
Total RNA from cells or tissues was extracted according to the instructions provided by manufacturer of RNeasy mini kit (Qiagen) using QIAzol lysis reagent (Qiagen), followed by measurements of RNA purities and concentrations by NanoDrop 2000 spectrophotometer (Thermo Scientific). A total of 1 μg of RNA was used for the reverse transcription to cDNA using the iScript™ Select cDNA Synthesis Kit (Bio-Rad Laboratories). The samples were subjected to real-time PCR using the LC480 system (Roche Diagnostics) after premixing with Precision®PLUS Master Mix (Primer Design). For each indicated gene, samples were run in duplicate in a 384-well plate and ΔΔCt method was used for quantifying the expressions after normalization to the housekeeping Rpl36 or GAPDH gene.
Firstly, we tested the dose-response effects of RUCILPs on gene expression in mouse fibroblasts (3T3-L1), mouse […] (MLO-Y4), and mouse myoblasts (C2C12). To estimate effect on adipocyte browning, we measured expression of Ucp1, Prdm16, Pgc1a, Dio2 and Cox2, and expression of AdipoQ was measured as a marker of white adipocytes. As a marker of bone formation, we measured expression of Sclerostin; and markers of myotube formation included expression of Heyl, Sox3, and Stat3.

[2] = system: integrin receptor; assay: Integrin inhibitor pre-treatment in RUCILP2 cellular studies; format: cell-based; conditions: 10 μM for 10 minutes before RUCILP2
Experimental: Human white pre-adipocytes were cultured until 80% confluent and switched into differentiation media (with 0.3 ml/ml fetal calf serum, 8 μg/ml d-biotin, 0.5 μg/ml insulin, 400 ng/ml dexamethasone). The differentiation process to mature adipocytes was completed after 12-14 days. The treatment of RUCILP2 and irisin started from the third day of differentiation. For integrin complex inhibition, cells were treated with 10 μM of CycloRGDyK (Selleckchem, #S7844) for 10 minutes and washed with PBS before treated with RUCILP2 and irisin, respectively. Cells were harvested after 14 days of differentiation and thermogenesis gene were quantified by quantitative polymerase chain reaction (q-PCR).
Two days after induction, cells were switched to inducing medium in the presence of 15 nM recombinant RUCILP2, or commercial recombinant irisin (Sigma, #SRP8039-10UG and Phoenix pharmaceuticals, #067-29A), or saline for two days. After that, cells were maintained in 86 nM insulin and 1 nM T3 in the presence of indicated concentrations of recombinant RUCILP2 or commercial recombinant irisin, or saline for four days with medium change every other day. For inhibition of the integrin complex, cells were treated with 10 μM of cRGDyK for 10 minutes before treatment with recombinant RUCILP2 or commercial recombinant irisin or saline every other day during 6 days of differentiation. […]

[3] = biological target: integrin αV/β5 receptor (Homo sapiens, UniProt P06756+P18084); assay: SPOT peptide microarray (μSPOT) binding assay; conditions: for relative integrin αV/β5 binding in 15-mer peptide library screening: His-tag integrin αV/β5 2.5 nM, semi-quantitative; for relative integrin αV/β5 binding, truncation scanning library of 19-mer epitopes: integrin αV/β5 2.5 nM
Experimental: μSPOT peptide arrays^25 (CelluSpots, Intavis AG, Cologne, Germany) were synthesized using a RePepSL synthesizer (Intavis AG) on acid labile, amino functionalized, cellulose membrane discs (Intavis AG) containing 9-fluorenylmethy-loxycarbonyl-β-alanine (Fmoc-β-Ala) linkers (minimum loading 1.0 μmol/cm). Synthesis was initiated by Fmoc deprotection using 20% piperidine in N-methylpyrrolidone (NMP) (1×2 and 1 ×4 μL, 3 and 5 min, respectively) followed by washing with dimethylforma-mide (DMF, 7×100 μL per disc) and ethanol (EtOH, 3×300 μL per disc). The loading of the discs were reduced to 50%, by using a mixture of Fmoc-Gly-OH and Boc-Gly-OH (0.25 M: 0.25 M in NMP). All couplings were achieved using 1.2 μL of coupling solution consisting of preactivated amino acids (AAs, 0.5 M) with ethyl 2-cyano-2-(hydroxyimino)acetate oxyma (1.5 M) and N,N′-diisopropylcarbodiimide (DIC, 1.1 M) in NMP (2:1:1, AA:oxyma:DIC). The couplings were carried out 6 times (5, 10, 20, 30, 30, and 30 min, respectively), and subsequently, the membrane was capped twice with capping mixture (5% […] in NMP), followed by washes with DMF (7×100 μL per disc). After chain elongation, final Fmoc deprotection was performed with 20% piperidine in NMP (3×4 μL, 5 min each), followed by 6× washes with DMF, subsequent N-terminal acetylation with capping mixture (3×4 μL, 5 min each) and final washes with DMF (7×100 μL per disc) and EtOH (7×200 μL per disc). Dried cellulose membrane discs were transferred to 96 deep-well blocks and were treated with the side-chain deprotection solution consisting of 80% TFA, 12% DCM, 5% H2O, and 3% TIPS (150 μL per well) for 1.5 h at room temperature (rt). Afterward, the deprotection solution was removed, and the discs were solubilized overnight at rt using a solvation mixture containing 88.5% TFA, 4% trifluoromethansufonic acid (TFMSA), 5% H2O, and 2.5% TIPS (250 μL per well). The resulting peptide-cellulose conjugates were precipitated with ice-cold ether (700 μL per well) and spun down at 1000 rpm for 90 min, followed by an additional wash of the formed pellet with ice-cold ether. The resulting pellets were redissolved in DMSO (250 μL per well) to give final stocks, which were transferred to a 384-well plate and printed (in duplicates) on white coated CelluSpots blank slides (76×26 mm, Intavis AG) using a SlideSpotter robot (Intavis AG).
After the peptide array slides were rinsed with 100 mM phosphate buffered saline (PBS) (pH 7.4), the arrays were blocked with 3% bovine serum albumin (BSA) in PBS for >2 h at rt. Subsequently, the arrays were incubated with His-tagged Integrin receptor (2.5 nM) in blocking for 1 h at rt. After 5×1 min washes with blocking buffer the slides were probed with HRP-conjugated 6x-His tag antibody (1:10000, ab184607, abcam) for 0.5 h at rt. Finally, the slides were washed 3×1 min with PBS, 2×1 min with PBST, 2×1 min PBS at rt. The washed arrays visualized using SuperSignal West Femto Maximum Sensitivity Substrate (Thermo Scientific) with Fusion FX SPectra multimodal imaging platform (Vilber). The resulting blots were analyzed using the Array Analyze Software (Active Motif), which defines the error range of each data set by comparing the intensities of each peptide duplicate on the analyzed array.
Prior to the initial screening, we confirmed that the secondary antibody produces no non-specific binding (‘background binding’) to the coated microscopic slide (FIG. 41A). The relative binding affinity of the resulting peptides was then evaluated in a semi-quantitative manner by screening the μSPOT peptide array with recombinantly expressed His-tag integrin αV/β5 (2.5 nM), followed by incubation with a horse radish peroxidase (HRP) conjugated 6x-His antibody (FIG. 41B). […]

integrin αV/β5 receptor, sequence (P06756 31-992 limits assumed): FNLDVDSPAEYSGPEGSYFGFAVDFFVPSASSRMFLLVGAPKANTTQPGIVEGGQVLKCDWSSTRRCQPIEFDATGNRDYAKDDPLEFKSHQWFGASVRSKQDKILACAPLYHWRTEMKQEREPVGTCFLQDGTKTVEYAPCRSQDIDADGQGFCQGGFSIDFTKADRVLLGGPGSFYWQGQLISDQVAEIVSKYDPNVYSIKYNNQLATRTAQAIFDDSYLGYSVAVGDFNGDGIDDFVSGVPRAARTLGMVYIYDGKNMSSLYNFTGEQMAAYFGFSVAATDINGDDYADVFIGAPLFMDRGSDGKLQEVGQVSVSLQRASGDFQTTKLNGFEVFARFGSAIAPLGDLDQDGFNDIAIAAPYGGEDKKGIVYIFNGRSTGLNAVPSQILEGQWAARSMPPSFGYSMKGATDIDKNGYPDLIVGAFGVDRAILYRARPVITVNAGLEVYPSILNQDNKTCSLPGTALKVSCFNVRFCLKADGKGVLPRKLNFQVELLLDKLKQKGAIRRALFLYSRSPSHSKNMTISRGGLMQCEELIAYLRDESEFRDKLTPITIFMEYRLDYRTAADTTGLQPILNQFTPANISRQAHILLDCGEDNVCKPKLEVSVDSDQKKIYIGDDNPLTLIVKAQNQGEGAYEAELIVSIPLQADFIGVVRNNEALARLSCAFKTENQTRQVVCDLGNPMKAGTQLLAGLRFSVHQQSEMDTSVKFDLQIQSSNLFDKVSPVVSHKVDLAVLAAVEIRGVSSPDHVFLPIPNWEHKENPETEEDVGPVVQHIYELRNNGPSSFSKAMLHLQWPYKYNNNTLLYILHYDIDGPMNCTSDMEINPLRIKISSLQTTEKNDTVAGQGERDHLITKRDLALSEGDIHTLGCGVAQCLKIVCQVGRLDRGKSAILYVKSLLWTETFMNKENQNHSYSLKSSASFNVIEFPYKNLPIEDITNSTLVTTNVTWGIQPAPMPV
integrin αV/β5 receptor, sequence (P18084 24-719 limits assumed): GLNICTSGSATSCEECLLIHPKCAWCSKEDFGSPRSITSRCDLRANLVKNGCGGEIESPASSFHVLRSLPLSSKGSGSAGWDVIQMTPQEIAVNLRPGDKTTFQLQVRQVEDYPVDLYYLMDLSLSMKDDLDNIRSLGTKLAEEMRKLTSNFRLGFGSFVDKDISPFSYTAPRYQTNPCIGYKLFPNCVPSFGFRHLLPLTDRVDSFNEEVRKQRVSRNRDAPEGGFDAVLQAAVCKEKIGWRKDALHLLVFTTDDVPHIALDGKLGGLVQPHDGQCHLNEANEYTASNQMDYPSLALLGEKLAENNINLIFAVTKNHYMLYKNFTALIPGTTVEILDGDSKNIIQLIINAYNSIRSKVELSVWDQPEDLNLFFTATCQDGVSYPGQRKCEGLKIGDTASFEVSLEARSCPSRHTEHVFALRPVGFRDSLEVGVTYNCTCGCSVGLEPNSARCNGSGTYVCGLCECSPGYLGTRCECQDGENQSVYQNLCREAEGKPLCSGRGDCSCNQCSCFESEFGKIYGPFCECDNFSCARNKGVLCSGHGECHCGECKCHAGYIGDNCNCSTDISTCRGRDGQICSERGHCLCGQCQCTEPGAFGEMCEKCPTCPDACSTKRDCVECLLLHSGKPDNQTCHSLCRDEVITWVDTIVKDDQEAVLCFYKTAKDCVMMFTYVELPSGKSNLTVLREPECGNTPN

| Substance | relative integrin αV/β5 binding in 15-mer peptide library screening [3] | further results |
| --- | --- | --- |
| 21-AABP1: the 21-amino acids fragment derived from RUCILP1 (DGTTYSVEVTAVDAAGEESAK; Ruminococcus torques) | – | effects on browning markers Ucp1, Prdm16, Dio2 [1]: non-significant |
| CycloRGDyK | – | effect of pre-treatment on cellular effects of RUCILP2 [2]: blocked |
| SEQ ID NO: 95: C-terminal 15-mer of RUCILP1, residues 74-88, ESAKSEKVEFTTVKK (Ruminococcus torques) | relatively high affinity | – |
| SEQ ID NO: 165: 15-mer of RUCILP2, residues 70-84, AAGNESVKSEKVTFK (Ruminococcus torques) | significant binding | – |
| SEQ ID NO: 168: C-terminal 15-mer of RUCILP2, residues 73-87, NESVKSEKVTFKTLK (Ruminococcus torques) | relatively high affinity | – |
| SEQ ID NO: 169: 19-mer binding epitope of RUCILP1, residues 12-30, ETSAKVSWKNAADGKEAAG (Ruminococcus torques) | binding epitopes | – |
| SEQ ID NO: 183: 19-mer binding epitope of RUCILP2, residues 12-30, ETSAKASWKNAADGKEAAG (Alanine scanning sequence; (1)..(19) Alanine scanning sequence of RUCILP1) | binding epitopes | – |
| SEQ ID NO: 235: 9-mer truncation of RUCILP1 epitope, residues 12-20, ETSAKVSWK (Ruminococcus torques) | – | relative integrin αV/β5 binding, truncation scanning library of 19-mer epitopes [3]: high binding affinity |
| SEQ ID NO: 268: 9-mer truncation of RUCILP2 epitope, residues 12-20, ETSAKASWK (Ruminococcus torques) | – | relative integrin αV/β5 binding, truncation scanning library of 19-mer epitopes [3]: high binding affinity |
